Experiments:
[1] = target: Core-Flag-R50A/K51A/R59A/R62A (hepatitis C virus genotype 2a, strain JFH1); experiment: co-IP; Huh7.5.1 stable cell lines expressing full-length JFH1-Luc/Neo-Core-Flag genomes (wild type or core mutants); anti-Flag M2 agarose, eluted with 3xFLAG peptide; anti-NS5A blot, quantified by IR fluorescence, three experiments
[2] = target: 3xFlag-Core R50A (hepatitis C virus genotype 2a, strain JFH1); experiment: co-IP; SGR-JFH1 (Huh7 subgenomic JFH1 replicon) cells transfected with 3xFlag-Core (wild type or mutants); anti-Flag M2 agarose, eluted with 3xFLAG peptide; anti-NS5A blot, quantified by IR fluorescence and normalised to precipitated core and expression, three experiments
[3] = target: 3xFlag-Core R59A (hepatitis C virus genotype 2a, strain JFH1); experiment: as above
[4] = target: 3xFlag-Core R62A (hepatitis C virus genotype 2a, strain JFH1); experiment: as above
[5] = target: T1, full-length NS5A-His (hepatitis C virus genotype 2a, strain …, UniProt Q99IB8 1977-2442); experiment: pull-down; 4 µg GST protein (bait) mixed with 10 µg NS5A protein in 100 µl binding buffer (50 mM Tris-HCl pH 7.5, 100 mM NaCl, 5 mM MgCl2, 10% glycerol, 0.5% Igepal CA-630, 1 mM DTT), 3 h at 4°C, then glutathione beads 1 h; Western blot (anti-NS5A, anti-Flag), in Figure 3 quantified by IR fluorescence; conditions: both partners purified
T1 construct: HCV nonstructural protein 5A (NS5A), genotype 2a strain JFH1, full-length; pET-UbCHis vector; also called recombinant NS5A-His; source: E. coli BL21(DE3)pCG1, purified as described previously [60]; not shown: His6, C-terminal, kept
T1 sequence: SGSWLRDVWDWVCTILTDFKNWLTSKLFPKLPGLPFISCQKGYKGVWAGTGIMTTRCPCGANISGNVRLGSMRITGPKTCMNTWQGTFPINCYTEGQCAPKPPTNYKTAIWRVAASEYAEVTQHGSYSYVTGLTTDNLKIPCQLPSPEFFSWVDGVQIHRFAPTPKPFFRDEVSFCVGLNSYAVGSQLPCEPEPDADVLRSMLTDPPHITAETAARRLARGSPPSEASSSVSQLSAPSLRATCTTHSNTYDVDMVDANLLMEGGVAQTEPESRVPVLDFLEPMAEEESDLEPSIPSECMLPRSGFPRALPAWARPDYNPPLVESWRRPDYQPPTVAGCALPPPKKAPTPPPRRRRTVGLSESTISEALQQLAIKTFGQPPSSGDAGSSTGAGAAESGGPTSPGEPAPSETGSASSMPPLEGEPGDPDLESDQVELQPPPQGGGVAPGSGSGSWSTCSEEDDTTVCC

[6] = target: T1, full-length NS5A-His; experiment: pull-down; as a4, proteins treated with 1, 5 or 10 µM BMS-790052 for 30 min at 4°C; conditions: both partners purified

Molecule: NS5A from JFH1-Luc/Neo-Core-Flag expressing cells (from UniProt Q99IB8 1977-2442) (natural protein)
- percent reduction in NS5A binding against wild-type core [1]: 85%

Molecule: subgenomic NS5A (from UniProt Q99IB8 1977-2442) (natural protein)
- percent reduction in NS5A binding against wild type [2]: 8%
- percent reduction in NS5A binding against wild type [3]: 65%
- percent reduction in NS5A binding against wild type [4]: 17%

B1: GST-Core-BD2-His (domain or fragment)
chain: PRRGPRLGVRTTRKTSERSQPRGRRQPIPKDRRSTGK
notes: HCV core protein, genotype 2a strain JFH1, residues 38-74 (basic domain 2); linker as in m1; also called GST-Core38-74-His; GST-BD2-His; not shown: GST, N-terminal, kept; His6, C-terminal, kept
- binding result [5]: binds

B2: GST-Core101-121-His (domain or fragment)
chain: RGSRPSWGPTDPRHRSRNVGK
notes: HCV core protein, genotype 2a strain JFH1, residues 101-121 (basic domain 3); linker as in m1; also called BD3; BD3 (101-121); not shown: GST, N-terminal, kept; His6, C-terminal, kept
- binding result [5]: binds

B3: GST-Core2-23-His (domain or fragment)
chain: STNPKPQRKTKRNTNRRPEDVK
notes: HCV core protein, genotype 2a strain JFH1, residues 2-23 (basic domain 1); linker as in m1; also called BD1; BD1 (2-23); not shown: GST, N-terminal, kept; His6, C-terminal, kept
- binding result [5]: binds

B4: GST-Core1-170-His (domain or fragment)
chain: MSTNPKPQRKTKRNTNRRPEDVKFPGGGQIVGGVYLLPRRGPRLGVRTTRKTSERSQPRGRRQPIPKDRRSTGKAWGKPGRPWPLYGNEGLGWAGWLLSPRGSRPSWGPTDPRHRSRNVGKVIDTLTCGFADLMGYIPVVGAPLSGAARAVAHGVRVLEDGVNYATGNLP
notes: HCV core protein, genotype 2a strain JFH1, residues 1-170 (domains D1 and D2); pGEX-2T; also called GST-Core-His; core (D1 and D2 domains); not shown: GST, N-terminal, kept; His6, C-terminal, kept
- binding result [6]: binds
